According to publication PMC8188405, “When is an obscurin variant pathogenic? The impact of Arg4344Gln and Arg4444Trp variants on protein–protein interactions and protein stability” (Human Molecular Genetics, 2021):

T1: titin Z8-Z9 (human, UniProt Q8WZ42-12 1698-1931)
T1 construct: titin, human, domains Z8-Z9, residues 1698 to 1931 based on NM_001267550/NP_001254479 (transcript variant IC); numbers count on: transcript variant IC; The vector encodes His6 followed by a TEV cleavage site; no cleavage is described; source: E. coli BL21-CodonPlus (DE3)-RIPL, purified (Ni-NTA)
T1 sequence (looked up): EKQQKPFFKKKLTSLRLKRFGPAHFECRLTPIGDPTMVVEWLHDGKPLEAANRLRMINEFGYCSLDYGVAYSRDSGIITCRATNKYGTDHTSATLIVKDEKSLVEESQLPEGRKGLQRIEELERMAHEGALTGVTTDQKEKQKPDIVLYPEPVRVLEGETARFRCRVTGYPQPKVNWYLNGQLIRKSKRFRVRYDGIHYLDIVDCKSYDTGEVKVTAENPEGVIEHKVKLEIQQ

B1: obscurin Ig58-Ig59 (wild type) (domain or fragment, human, UniProt Q5VST9 4337-4521, looked up)
chain: TAKNTVVRGLENVEALEGGEALFECQLSQPEVAAHTWLLDDEPVHTSENAEVVFFENGLRHLLLLKNLRPQDSCRVTFLAGDMVTSAFLTVRGWRLEILEPLKNAAVRAGAQACFTCTLSEAVPVGEASWYINGAAVQPDDSDWTVTADGSHHALLLRSAQPHHAGEVTFACRDAVASARLTVLG
modifications: labelled with the Monolith NT Protein Labeling kit RED-NHS (in the MST experiments only)
notes: obscurin, human, domains Ig58-Ig59, residues 4337-4521 based on NM_001098623/NP_001092093 (transcript variant B); The vector encodes His6 followed by a TEV cleavage site; no cleavage is described; The His6 tag holds the protein on Ni-NTA beads in the pull-downs; also called Ig58-Ig59WT; O5859; source: E. coli BL21-CodonPlus (DE3)-RIPL, purified (Ni-NTA); not shown: His6, N-terminal, kept

Experiments:
[1] = target: B1; test: MST; obscurin Ig58-Ig59 labelled with RED-NHS (typically 50-100 nM); unlabelled PLN peptides diluted serially; PBS, 0.2% (v/v) Triton X-100, 2 mM DTT; Monolith NT.115; one-site binding model; conditions: both partners purified
titin Z8-Z9 = target: T1, titin Z8-Z9; test: MST; obscurin Ig58-Ig59 labelled with RED-NHS (typically 50-100 nM); unlabelled titin Z8-Z9 or ObB diluted serially; PBS, 2 mM DTT; Monolith NT.115; one-site binding model; conditions: both partners purified

Row | Kd [1] [µM] | Kd (titin Z8-Z9) [µM] | Binder | further results
1 | 58.5 |  | QARQKLQNLFINFCLILICLLLICIIVMLL (peptide, UniProt P26678 23-52, looked up, phospholamban, human, transmembrane region, residues 23-52 (synthetic); source: synthetic peptide, bought: Pepscan) [phospholamban transmembrane region PLN(23-52)] | 
2 | 18.9 |  | human full-length phospholamban (peptide, UniProt P26678 1-52, looked up, phospholamban, human, full length (synthetic); Kept in buffer with Triton X-100; seen on gels as monomeric and pentameric bands, both of which were pulled down by Ig58-Ig59; also called PLN; source: synthetic peptide, bought: Pepscan) MEKVQYLTRSAIRRASTIEMPQQARQKLQNLFINFCLILICLLLICIIVMLL | 
3 |  | 7.8 | B1 | 
4 |  |  | obscurin Ig58-Ig59 R4344Q, A4484T double variant (domain or fragment, human, UniProt Q5VST9 4337-4521, looked up, labelled with the Monolith NT Protein Labeling kit RED-NHS, source: E. coli BL21-CodonPlus (DE3)-RIPL, purified (Ni-NTA)) TAKNTVVQGLENVEALEGGEALFECQLSQPEVAAHTWLLDDEPVHTSENAEVVFFENGLRHLLLLKNLRPQDSCRVTFLAGDMVTSAFLTVRGWRLEILEPLKNAAVRAGAQACFTCTLSEAVPVGEASWYINGAAVQPDDSDWTVTTDGSHHALLLRSAQPHHAGEVTFACRDAVASARLTVLG | binding result (titin Z8-Z9): binds
5 |  | 6.4 | obscurin Ig58-Ig59 R4444W (domain or fragment, human, UniProt Q5VST9 4337-4521, looked up, labelled with the Monolith NT Protein Labeling kit RED-NHS, The variant occurs in the human population; also called R4444W variant; Arg4444Trp; source: E. coli BL21-CodonPlus (DE3)-RIPL, purified (Ni-NTA)) TAKNTVVRGLENVEALEGGEALFECQLSQPEVAAHTWLLDDEPVHTSENAEVVFFENGLRHLLLLKNLRPQDSCRVTFLAGDMVTSAFLTVRGWRLEILEPLKNAAVWAGAQACFTCTLSEAVPVGEASWYINGAAVQPDDSDWTVTADGSHHALLLRSAQPHHAGEVTFACRDAVASARLTVLG | 
6 |  | 6.6 | obscurin Ig58-Ig59 R4344Q (domain or fragment, human, UniProt Q5VST9 4337-4521, looked up, labelled with the Monolith NT Protein Labeling kit RED-NHS (in the MST experiments only), The variant occurs in the human population (found in up to 15% of African Americans); also called R4344Q variant; Arg4344Gln; source: E. coli BL21-CodonPlus (DE3)-RIPL, purified (Ni-NTA); not shown: His6, N-terminal, kept) TAKNTVVQGLENVEALEGGEALFECQLSQPEVAAHTWLLDDEPVHTSENAEVVFFENGLRHLLLLKNLRPQDSCRVTFLAGDMVTSAFLTVRGWRLEILEPLKNAAVRAGAQACFTCTLSEAVPVGEASWYINGAAVQPDDSDWTVTADGSHHALLLRSAQPHHAGEVTFACRDAVASARLTVLG | 
